This note sets out measurements from article PMC11375770, “Fragment-Based Interrogation of the 14–3–3/TAZ Protein–Protein Interaction” (Biochemistry, 2024).

Experiment [1] addresses T1, 14-3-3ζ (Homo sapiens, UniProt P63104).
T1 construct: gene YWHAZ; with ERα-derived phosphopeptide (similar Kd with TAZpS89 peptide)
T1 sequence (P63104 1-245): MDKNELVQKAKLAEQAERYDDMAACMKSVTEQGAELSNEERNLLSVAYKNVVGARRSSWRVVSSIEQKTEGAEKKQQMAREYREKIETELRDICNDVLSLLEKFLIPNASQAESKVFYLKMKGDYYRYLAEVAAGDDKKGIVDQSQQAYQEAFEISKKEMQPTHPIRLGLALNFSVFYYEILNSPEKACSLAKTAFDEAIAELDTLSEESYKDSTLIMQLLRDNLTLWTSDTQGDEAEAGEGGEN
T1 sequence (P03372 1-595 partner): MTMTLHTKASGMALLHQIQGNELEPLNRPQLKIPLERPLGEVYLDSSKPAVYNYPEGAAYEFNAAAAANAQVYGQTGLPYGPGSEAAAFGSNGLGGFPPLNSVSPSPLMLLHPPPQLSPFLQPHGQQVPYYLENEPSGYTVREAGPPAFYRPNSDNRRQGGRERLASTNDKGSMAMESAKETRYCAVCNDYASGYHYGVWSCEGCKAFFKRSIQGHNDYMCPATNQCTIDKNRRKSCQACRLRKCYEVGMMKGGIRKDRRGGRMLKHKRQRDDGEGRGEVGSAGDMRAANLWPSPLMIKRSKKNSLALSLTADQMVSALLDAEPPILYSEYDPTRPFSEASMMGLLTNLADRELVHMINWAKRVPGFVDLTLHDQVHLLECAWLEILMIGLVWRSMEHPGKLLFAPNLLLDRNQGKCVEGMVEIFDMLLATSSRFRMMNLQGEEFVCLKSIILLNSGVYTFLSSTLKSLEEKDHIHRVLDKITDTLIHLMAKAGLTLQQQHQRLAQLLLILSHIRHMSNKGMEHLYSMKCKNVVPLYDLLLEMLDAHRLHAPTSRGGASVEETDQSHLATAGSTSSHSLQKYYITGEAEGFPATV
The experiment is described as follows: MST dose-response; also DSF and WaterLOGSY NMR with the TAZ peptide complex. Type of experiment: binding.

Experiment [2] concerns the target T2, 14-3-3ζ labelled with NT647-NHS dye (human, UniProt P63104 1-245, NT647-NHS dye (Monolith Protein Labeling Kit RED-NHS); labelled residues not stated).
T2 construct: Same construct as m1, with the fluorescent dye for MST; also called labeled 14-3-3ζ; source: E. coli BL21 (DE3), pProEX HTb plasmid, purified (Ni2+-NTA), labelled with Monolith Protein Labeling Kit RED-NHS
T2 sequence (looked up): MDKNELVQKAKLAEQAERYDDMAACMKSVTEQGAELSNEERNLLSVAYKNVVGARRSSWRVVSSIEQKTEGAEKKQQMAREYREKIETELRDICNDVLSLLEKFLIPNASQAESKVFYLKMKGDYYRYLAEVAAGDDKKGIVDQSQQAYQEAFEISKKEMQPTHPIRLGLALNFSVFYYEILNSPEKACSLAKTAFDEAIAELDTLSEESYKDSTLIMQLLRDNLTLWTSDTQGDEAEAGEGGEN
The experiment is described as follows: MST; TAZpS89 peptide titrated against a fixed concentration of NT647-labelled 14-3-3ζ; DPBS with 0.05% Tween20, 25 °C; apparent Kd; absence of fragment. To be noted: both partners purified.

Experiment [3] concerns the target T2, 14-3-3ζ labelled with NT647-NHS dye. The experiment is described as follows: MST; TAZpS89 peptide titrated against a fixed concentration of NT647-labelled 14-3-3ζ; DPBS with 0.05% Tween20, 25 °C; apparent Kd; presence of 1 mM fragment TCF199. To be noted: both partners purified.
Experiment [4] deals with T3, 14-3-3σΔC (C-terminally truncated after T231) (human, UniProt P31947 1-231).
T3 construct: also called 14-3-3sigma
T3 sequence (looked up): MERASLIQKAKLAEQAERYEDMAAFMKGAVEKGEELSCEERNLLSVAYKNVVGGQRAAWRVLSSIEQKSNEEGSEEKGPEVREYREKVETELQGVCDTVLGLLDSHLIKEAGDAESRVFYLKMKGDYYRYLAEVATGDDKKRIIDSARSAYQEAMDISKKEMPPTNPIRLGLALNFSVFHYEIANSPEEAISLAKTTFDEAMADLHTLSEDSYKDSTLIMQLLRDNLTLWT
Description: crystal structure; 14-3-3σΔC mixed 1:2 with the peptide, sitting drop, 0.095 M Hepes pH 7.5, PEG 400 26%, 0.19 M CaCl2, 5% glycerol; crystals soaked with 10 mM TCF199. To be noted: both partners purified.

Where no end group is shown, it is not given here. [ ]: non-standard residue; d: D form. pS = N[C@@H](COP(=O)(O)O)C(=O)O

Molecule `O=C(Nc1ccccc1)OCC12CCCCC1NCCC2` (stereo not shown) [TCF199] yielded a Kd in experiment [1] of 112000 ± 77000 nM.

B1: TAZpS89 peptide (peptide)
peptide: QHVRSH[pS]SPASLQ
notes: TAZ-derived peptide surrounding phosphorylated Ser89; The methods of crystallisation say only 'the peptide'; also called TAZ-derived peptide; TAZ peptide; source: synthetic peptide (bought: Caslo, Denmark)
With B1, the Kd in experiment [2] is 1380 nM; in experiment [3], 40 nM. Also, the binding result in experiment [4] is given as “binds”.
